Source: US20090131638A1 (Eli Lilly, published 2009)

T1: human mature myostatin (dimeric form) (human, UniProt O14793 267-375)
T1 sequence: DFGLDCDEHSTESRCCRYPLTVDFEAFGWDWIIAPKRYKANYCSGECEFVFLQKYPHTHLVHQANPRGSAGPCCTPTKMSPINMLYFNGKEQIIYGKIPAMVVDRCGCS

T2: recombinant human GDF-11 (human, UniProt O95390 299-407)
T2 sequence (looked up): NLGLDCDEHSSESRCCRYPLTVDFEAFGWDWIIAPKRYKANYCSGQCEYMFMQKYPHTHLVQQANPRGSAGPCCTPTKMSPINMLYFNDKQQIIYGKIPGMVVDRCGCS


Tests used:
[1] = biological target: T1, human mature myostatin (dimeric form); assay: cell-based or functional assay
recombinant human GDF-11 = biological target: T2, recombinant human GDF-11; assay: cell-based or functional assay
[2] = biological target: T1, human mature myostatin (dimeric form); assay: KINEXA, calculated as KD x kon
Protocol: (§1) Binding affinity measurements for full-length monoclonal antibodies of the invention are determined using a Sapidyne KINEXA assay. NHS-activated fast-flow sepharose beads (GE Healthcare) are pre-coated with […] and blocked with 10 mg/ml BSA in 1 M Tris-HCl, pH 8.0. Then 2 pM, 4 pM, 40 pM of an antibody of the invention (e.g., 3-74/C1E4) is incubated with various concentration (e.g., 2.4 pM to 10 nM, serial dilutions) of myostatin in running buffer (PBS, 0.005% (v/v) Tween-20 and 1 mg/ml ovalbumin) for 10 hours at room temperature. […] The amount of bead-bound antibody is then quantified by passing a solution of fluorescent (Cy5) labeled goat ant-human Fc antibody (Jackson Immuno Research) diluted 1:4000 in running buffer over the beads. The measured fluorescence signal is proportional to the concentration of free antibody at equilibrium. Each concentration of myostatin is measured in duplicate. […]
(§2) The association rate constant (kₒₙ) for GDF-8 binding is also determined using a Sapidyne KINEXA assay. […] The dissociation rate constant (koff) is calculated using the expression koff=KD×kₒₙ. Full-length monoclonal antibody 3-74/C1E4 (operably linked to an IgG₄ Fc region) was measured using the described assay, the results obtained are listed below in Table 3.

[3] = biological target: T1, human mature myostatin (dimeric form); assay: KINEXA equilibrium assay, antibody and myostatin in solution, room temperature
Protocol: Binding affinity measurements for full-length monoclonal antibodies of the invention are determined using a Sapidyne KINEXA assay. NHS-activated fast-flow sepharose beads (GE Healthcare) are pre-coated with […] and blocked with 10 mg/ml BSA in 1 M Tris-HCl, pH 8.0. Then 2 pM, 4 pM, 40 pM of an antibody of the invention (e.g., 3-74/C1E4) is incubated with various concentration (e.g., 2.4 pM to 10 nM, serial dilutions) of myostatin in running buffer (PBS, 0.005% (v/v) Tween-20 and 1 mg/ml ovalbumin) for 10 hours at room temperature. To determine the free antibody present at equilibrium, each sample is passed through the myostatin-coated beads. The amount of bead-bound antibody is then quantified by passing a solution of fluorescent (Cy5) labeled goat ant-human Fc antibody (Jackson Immuno Research) diluted 1:4000 in running buffer over the beads. The measured fluorescence signal is proportional to the concentration of free antibody at equilibrium. Each concentration of myostatin is measured in duplicate. The equilibrium dissociation constant (KD) is obtained from non-linear regression of the competition curves using a multiple-curve, one-site homogeneous binding model (KINEXA software).

[4] = biological target: T1, human mature myostatin (dimeric form); assay: KINEXA kinetic assay, 2 pM antibody mixed with 20 pM GDF-8
Protocol: as §1, §2

Row | IC50 GDF8 (myostatin/SBE luciferase reporter assay, 293E cells) [1] [nM] | IC50 GDF11 (GDF-11/SBE luciferase reporter assay, 293E cells) (recombinant human GDF-11) [nM] | koff [2] [s⁻¹] | Kd [3] [pM] | kon [4] [M⁻¹ s⁻¹] | Binder
1 | 1 | 4 | – | – | – | Fab 3-74/C1E4 (Fab, V domains shown) VH: EVQLVESGGGLVQPGGSLRLSCAASGLTFSRYPMSWVRQAPGKGLEWVSAITSSGGSTYYSDTVKGRFTISRDNAKNTLYLQMNSLRAEDTAVYYCARLPDYWGQGTLVTVSS VL: EIVLTQSPGTLSLSPGERATLSCRASSSVSSSYLHWYAAKPGQAPRLLIYSTSNLVAGIPDRFSGSGSGTDFTLTISRLEPEDFAVYYCQHYSGYHFTFGGGTKVEIK
2 | – | – | 2.08e-06 | 1.39 | 1.49e+06 | Full-length monoclonal antibody 3-74/C1E4 (operably linked to an IgG4 Fc region) (antibody, V domains shown, also called Mab 3-74/C1E4) VH: EVQLVESGGGLVQPGGSLRLSCAASGLTFSRYPMSWVRQAPGKGLEWVSAITSSGGSTYYSDTVKGRFTISRDNAKNTLYLQMNSLRAEDTAVYYCARLPDYWGQGTLVTVSS VL: EIVLTQSPGTLSLSPGERATLSCRASSSVSSSYLHWYAAKPGQAPRLLIYSTSNLVAGIPDRFSGSGSGTDFTLTISRLEPEDFAVYYCQHYSGYHFTFGGGTKVEIK
